Results as given in the supplement of paper PMC10567573.

B1: ACSBG2 (parent)
chain: FAQADALKGTLVSTLKEVKPTVFI

Variants of: B1
Assay: protein stability index of a GFP-peptide fusion (GPS, HEK-293T) (PSI 1-6); higher = more stable
Details: c terminus: a fixed tail appended
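Note: lentivirally expressed fusions sorted by FACS into six bins by GFP to DsRed ratio, PSI derived from sequencing read proportions per bin multiplied by bin number.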

Protein stability index of substitutions, site by site:
S13: T 2.04, I 2.4, M 3.57, E 1.27, H 1.84, G 1.04, F 2.53, R 1.46, C 1.93, A 2.1, Q 1.39, V 4.44, K 3.44, D 1.85, L 2.05, Y 3.19, P 1.41, N 2.01
P20: V 1.91, R 2.28, K 1.25, S 2.9, G 2.47, N 2.42, F 2.4, L 3.23, D 1.51, Q 2.13, W 2.33, Y 2.68
L11: T 2.78, V 2.08
T14: P 1.23, S 1.08, Q 1.95, N 2.26, H 2.27, Y 3.04, F 2.64, V 2.05, L 1.51, E 1.26, K 2.03, A 1.8, M 1.32, D 1.88, I 2.22
L15: T 1.97, D 2.19, W 1.66, R 2.1, M 1.6, V 1.06, P 2, H 1.93, Q 2.02, Y 1.78, E 2.39, G 1.4, K 1.8, F 1.77, A 2.51, S 1.96, N 1.77
T21: D 1.82, P 1.22, W 3.06, A 1.36, M 1.82, V 4.03, Q 1.32, N 1.92, G 2.14, S 2.35, E 1.47, Y 1.64, R 2, H 1.61, I 4.12, K 1.14
V18: A 2.63, Q 2.04, S 1.98, W 3.71, N 2.43, I 2.48, K 1.92, R 1.89, H 1.28, G 1.79, E 5.23, L 1.04, M 1.44, T 1.26, C 3.06, D 1.68, P 1.74
K19: E 1.48, G 3.46, F 3.16, T 2.53, A 2.49, C 2.65, M 3.1, W 1.99, Q 2.08, D 2.26, S 2.45, H 1.04, Y 2.36, P 2.84, N 1.48, R 1.02
E17: T 3.12, D 1.48, A 1.03, K 1.45, F 2.07, I 1.86, H 3.49, M 2.29, G 1.95, S 1.81, P 1.83, Q 1.73, R 1.99, C 2.06, V 2.23, L 2.51, N 3.2
K16: V 2.8, Q 1.56, P 2.41, E 2.38, R 1.45, H 2.75, A 1.97, C 2.34, T 3.25, D 1.65, W 2.4, F 2.41, S 2.25
V12: S 1.34, T 1.63, R 2.08, C 1.76, Q 1.52, M 1.66, I 2.26, L 1.25, K 3.87, H 2.12, A 1.64, E 1.89, D 1.81, P 1.85, G 1.95, N 1.6
V22: A 2.73, D 2.99, I 2.43, E 1.94, G 2.25, C 2.18, F 1.67, H 1.92
